Laboratory results published in patent US11833164B2, “Methods of treating Fabry disease in patients having a mutation in the GLA gene” (Amicus Therapeutics, Inc., priority 2019, dated 2023).

Tested on: mutant form of α-Gal A expressed in HEK-293 cells
Test: HEK assay (GLP HEK / Migalastat Amenability Assay): α-Gal A activity in lysates of transiently transfected HEK-293 cells incubated with or without 10 μM migalastat
Type: cell-based, human
Details: for Absolute increase (% WT) / Relative increase: 10 μM migalastat versus baseline; for Baseline α-Gal A activity (% WT): absence of migalastat; for Baseline α-Gal A activity (% WT) / 10 μM migalastat α-Gal A activity (% WT): percentage of baseline wild-type α-Gal A activity; for Baseline α-Gal A activity (% WT) / Baseline α-Gal A activity / 10 μM migalastat α-Gal A activity / 10 μM migalastat α-Gal A activity (% WT): mean ± SEM; for Baseline α-Gal A activity / 10 μM migalastat α-Gal A activity: lysates of HEK-293 cells transiently transfected with the mutant form; for Baseline α-Gal A activity: incubated 5 days in absence of migalastat; for 10 μM migalastat α-Gal A activity: incubated 5 days with 10 μM migalastat; for 10 μM migalastat α-Gal A activity (% WT): with 10 μM migalastat, 5 days
Method in brief: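 Activity reported as 4-MU released (nmol/mg/hr), mean±SEM, from lysates of transiently transfected HEK-293 cells expressing mutant α-Gal A, cultured with or without 10 μM migalastat.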

B1: N336D (protein)
chain: MQLRNPELHLGCALALRFLALVSWDIPGARALDNGLARTPTMGWLHWERFMCNLDCQEEPDSCISEKLFMEMAELMVSEGWKDAGYEYLCIDDCWMAPQRDSEGRLQADPQRFPHGIRQLANYVHSKGLKLGIYADVGNKTCAGFPGSFGYYDIDAQTFADWGVDLLKFDGCYCDSLENLADGYKHMSLALNRTGRSIVYSCEWPLYMWPFQKPNYTEIRQYCNHWRNFADIDDSWKSIKSILDWTSFNQERIVDVAGPGGWNDPDMLVIGNFGLSWNQQVTQMALWAIMAAPLFMSNDLRHISPQAKALLQDKDVIAINQDPLGKQGYQLRQGDDFEVWERPLSGLAWAVAMINRQEIGGPRSYTIAVASLGKGVACNPACFITQLLPVKRKLGFYEWTSRLRSHINPTGTVLLQLENTMQMSLKDLL
- Absolute increase (% WT): 34.3 % WT
- Relative increase: 1.7
- Baseline α-Gal A activity (% WT): 53.7 ± 2.8 % WT
- Baseline α-Gal A activity: 23869 ± 1072 nmol/mg/h
- 10 μM migalastat α-Gal A activity: 39534 ± 2519 nmol/mg/h
- 10 μM migalastat α-Gal A activity (% WT): 88.1 ± 4.9 % WT

B2: N336S (protein)
chain: MQLRNPELHLGCALALRFLALVSWDIPGARALDNGLARTPTMGWLHWERFMCNLDCQEEPDSCISEKLFMEMAELMVSEGWKDAGYEYLCIDDCWMAPQRDSEGRLQADPQRFPHGIRQLANYVHSKGLKLGIYADVGNKTCAGFPGSFGYYDIDAQTFADWGVDLLKFDGCYCDSLENLADGYKHMSLALNRTGRSIVYSCEWPLYMWPFQKPNYTEIRQYCNHWRNFADIDDSWKSIKSILDWTSFNQERIVDVAGPGGWNDPDMLVIGNFGLSWNQQVTQMALWAIMAAPLFMSNDLRHISPQAKALLQDKDVIAINQDPLGKQGYQLRQGDSFEVWERPLSGLAWAVAMINRQEIGGPRSYTIAVASLGKGVACNPACFITQLLPVKRKLGFYEWTSRLRSHINPTGTVLLQLENTMQMSLKDLL
- Absolute increase (% WT): 18.7 % WT
- Relative increase: 1.2
- Baseline α-Gal A activity (% WT): 79.7 ± 3.8 % WT
- Baseline α-Gal A activity: 32974 ± 2396 nmol/mg/h
- 10 μM migalastat α-Gal A activity: 40651 ± 2487 nmol/mg/h
- 10 μM migalastat α-Gal A activity (% WT): 98.4 ± 3.1 % WT

B3: F337C (protein)
chain: MQLRNPELHLGCALALRFLALVSWDIPGARALDNGLARTPTMGWLHWERFMCNLDCQEEPDSCISEKLFMEMAELMVSEGWKDAGYEYLCIDDCWMAPQRDSEGRLQADPQRFPHGIRQLANYVHSKGLKLGIYADVGNKTCAGFPGSFGYYDIDAQTFADWGVDLLKFDGCYCDSLENLADGYKHMSLALNRTGRSIVYSCEWPLYMWPFQKPNYTEIRQYCNHWRNFADIDDSWKSIKSILDWTSFNQERIVDVAGPGGWNDPDMLVIGNFGLSWNQQVTQMALWAIMAAPLFMSNDLRHISPQAKALLQDKDVIAINQDPLGKQGYQLRQGDNCEVWERPLSGLAWAVAMINRQEIGGPRSYTIAVASLGKGVACNPACFITQLLPVKRKLGFYEWTSRLRSHINPTGTVLLQLENTMQMSLKDLL
- Absolute increase (% WT): 19.0 % WT
- Relative increase: 1.9
- Baseline α-Gal A activity (% WT): 21.7 ± 0.8 % WT
- Baseline α-Gal A activity: 9557 ± 452 nmol/mg/h
- 10 μM migalastat α-Gal A activity: 17991 ± 960 nmol/mg/h
- 10 μM migalastat α-Gal A activity (% WT): 40.7 ± 1.6 % WT

B4: N336T (protein)
chain: MQLRNPELHLGCALALRFLALVSWDIPGARALDNGLARTPTMGWLHWERFMCNLDCQEEPDSCISEKLFMEMAELMVSEGWKDAGYEYLCIDDCWMAPQRDSEGRLQADPQRFPHGIRQLANYVHSKGLKLGIYADVGNKTCAGFPGSFGYYDIDAQTFADWGVDLLKFDGCYCDSLENLADGYKHMSLALNRTGRSIVYSCEWPLYMWPFQKPNYTEIRQYCNHWRNFADIDDSWKSIKSILDWTSFNQERIVDVAGPGGWNDPDMLVIGNFGLSWNQQVTQMALWAIMAAPLFMSNDLRHISPQAKALLQDKDVIAINQDPLGKQGYQLRQGDTFEVWERPLSGLAWAVAMINRQEIGGPRSYTIAVASLGKGVACNPACFITQLLPVKRKLGFYEWTSRLRSHINPTGTVLLQLENTMQMSLKDLL
- Absolute increase (% WT): 29.7 % WT
- Relative increase: 2.0
- Baseline α-Gal A activity (% WT): 28.9 ± 1.3 % WT
- Baseline α-Gal A activity: 12743 ± 709 nmol/mg/h
- 10 μM migalastat α-Gal A activity: 25898 ± 1374 nmol/mg/h
- 10 μM migalastat α-Gal A activity (% WT): 58.6 ± 2.3 % WT

B5: N336I (protein)
chain: MQLRNPELHLGCALALRFLALVSWDIPGARALDNGLARTPTMGWLHWERFMCNLDCQEEPDSCISEKLFMEMAELMVSEGWKDAGYEYLCIDDCWMAPQRDSEGRLQADPQRFPHGIRQLANYVHSKGLKLGIYADVGNKTCAGFPGSFGYYDIDAQTFADWGVDLLKFDGCYCDSLENLADGYKHMSLALNRTGRSIVYSCEWPLYMWPFQKPNYTEIRQYCNHWRNFADIDDSWKSIKSILDWTSFNQERIVDVAGPGGWNDPDMLVIGNFGLSWNQQVTQMALWAIMAAPLFMSNDLRHISPQAKALLQDKDVIAINQDPLGKQGYQLRQGDIFEVWERPLSGLAWAVAMINRQEIGGPRSYTIAVASLGKGVACNPACFITQLLPVKRKLGFYEWTSRLRSHINPTGTVLLQLENTMQMSLKDLL
- Absolute increase (% WT): 23.0 % WT
- Relative increase: 2.1
- Baseline α-Gal A activity (% WT): 20.7 ± 2.7 % WT
- Baseline α-Gal A activity: 8544 ± 1083 nmol/mg/h
- 10 μM migalastat α-Gal A activity: 18303 ± 1404 nmol/mg/h
- 10 μM migalastat α-Gal A activity (% WT): 43.8 ± 1.6 % WT

B6: F337V (protein)
chain: MQLRNPELHLGCALALRFLALVSWDIPGARALDNGLARTPTMGWLHWERFMCNLDCQEEPDSCISEKLFMEMAELMVSEGWKDAGYEYLCIDDCWMAPQRDSEGRLQADPQRFPHGIRQLANYVHSKGLKLGIYADVGNKTCAGFPGSFGYYDIDAQTFADWGVDLLKFDGCYCDSLENLADGYKHMSLALNRTGRSIVYSCEWPLYMWPFQKPNYTEIRQYCNHWRNFADIDDSWKSIKSILDWTSFNQERIVDVAGPGGWNDPDMLVIGNFGLSWNQQVTQMALWAIMAAPLFMSNDLRHISPQAKALLQDKDVIAINQDPLGKQGYQLRQGDNVEVWERPLSGLAWAVAMINRQEIGGPRSYTIAVASLGKGVACNPACFITQLLPVKRKLGFYEWTSRLRSHINPTGTVLLQLENTMQMSLKDLL
- Absolute increase (% WT): 31.1 % WT
- Relative increase: 1.4
- Baseline α-Gal A activity (% WT): 65.9 ± 4.1 % WT
- Baseline α-Gal A activity: 29582 ± 2747 nmol/mg/h
- 10 μM migalastat α-Gal A activity: 42718 ± 2776 nmol/mg/h
- 10 μM migalastat α-Gal A activity (% WT): 97 ± 4.6 % WT

B7: F337Y (protein)
chain: MQLRNPELHLGCALALRFLALVSWDIPGARALDNGLARTPTMGWLHWERFMCNLDCQEEPDSCISEKLFMEMAELMVSEGWKDAGYEYLCIDDCWMAPQRDSEGRLQADPQRFPHGIRQLANYVHSKGLKLGIYADVGNKTCAGFPGSFGYYDIDAQTFADWGVDLLKFDGCYCDSLENLADGYKHMSLALNRTGRSIVYSCEWPLYMWPFQKPNYTEIRQYCNHWRNFADIDDSWKSIKSILDWTSFNQERIVDVAGPGGWNDPDMLVIGNFGLSWNQQVTQMALWAIMAAPLFMSNDLRHISPQAKALLQDKDVIAINQDPLGKQGYQLRQGDNYEVWERPLSGLAWAVAMINRQEIGGPRSYTIAVASLGKGVACNPACFITQLLPVKRKLGFYEWTSRLRSHINPTGTVLLQLENTMQMSLKDLL
- Absolute increase (% WT): 21.6 % WT
- Relative increase: 1.4
- Baseline α-Gal A activity (% WT): 52.3 ± 4.2 % WT
- Baseline α-Gal A activity: 21577 ± 1930 nmol/mg/h
- 10 μM migalastat α-Gal A activity: 30991 ± 2695 nmol/mg/h
- 10 μM migalastat α-Gal A activity (% WT): 73.9 ± 3.2 % WT

B8: N336Y (protein)
chain: MQLRNPELHLGCALALRFLALVSWDIPGARALDNGLARTPTMGWLHWERFMCNLDCQEEPDSCISEKLFMEMAELMVSEGWKDAGYEYLCIDDCWMAPQRDSEGRLQADPQRFPHGIRQLANYVHSKGLKLGIYADVGNKTCAGFPGSFGYYDIDAQTFADWGVDLLKFDGCYCDSLENLADGYKHMSLALNRTGRSIVYSCEWPLYMWPFQKPNYTEIRQYCNHWRNFADIDDSWKSIKSILDWTSFNQERIVDVAGPGGWNDPDMLVIGNFGLSWNQQVTQMALWAIMAAPLFMSNDLRHISPQAKALLQDKDVIAINQDPLGKQGYQLRQGDYFEVWERPLSGLAWAVAMINRQEIGGPRSYTIAVASLGKGVACNPACFITQLLPVKRKLGFYEWTSRLRSHINPTGTVLLQLENTMQMSLKDLL
- Absolute increase (% WT): 16.6 % WT
- Relative increase: 1.3
- Baseline α-Gal A activity (% WT): 66.3 ± 3.7 % WT
- Baseline α-Gal A activity: 29615 ± 1640 nmol/mg/h
- 10 μM migalastat α-Gal A activity: 37475 ± 2540 nmol/mg/h
- 10 μM migalastat α-Gal A activity (% WT): 83 ± 4.4 % WT

B9: F337L (protein)
chain: MQLRNPELHLGCALALRFLALVSWDIPGARALDNGLARTPTMGWLHWERFMCNLDCQEEPDSCISEKLFMEMAELMVSEGWKDAGYEYLCIDDCWMAPQRDSEGRLQADPQRFPHGIRQLANYVHSKGLKLGIYADVGNKTCAGFPGSFGYYDIDAQTFADWGVDLLKFDGCYCDSLENLADGYKHMSLALNRTGRSIVYSCEWPLYMWPFQKPNYTEIRQYCNHWRNFADIDDSWKSIKSILDWTSFNQERIVDVAGPGGWNDPDMLVIGNFGLSWNQQVTQMALWAIMAAPLFMSNDLRHISPQAKALLQDKDVIAINQDPLGKQGYQLRQGDNLEVWERPLSGLAWAVAMINRQEIGGPRSYTIAVASLGKGVACNPACFITQLLPVKRKLGFYEWTSRLRSHINPTGTVLLQLENTMQMSLKDLL
- Absolute increase (% WT): 20.8 % WT
- Relative increase: 1.4
- Baseline α-Gal A activity (% WT): 57.8 ± 4.8 % WT
- Baseline α-Gal A activity: 23197 ± 2254 nmol/mg/h
- 10 μM migalastat α-Gal A activity: 31963 ± 2641 nmol/mg/h
- 10 μM migalastat α-Gal A activity (% WT): 78.6 ± 3.1 % WT
